Data taken from publication PMC3264566, “Structure-Function Studies of DNA Binding Domain of Response Regulator KdpE Reveals Equal Affinity Interactions at DNA Half-Sites”.

Legend:
Conditions in all cases: protein: recombinant; tags: N-terminal His-tag removed with TEV; chain copies: 2; blunt
KdpE DBD (KdpEDBD) [1] = biological target: T1, KdpE DBD (KdpEDBD) (Escherichia coli str. K-12 substr. …, UniProt P21866 124-225); assay: AUC sedimentation equilibrium; first binding event, ABB model (macroscopic; upper limit); AUC: 50 mM HEPES pH 7.4, 150 mM KCl, 1 mM EDTA, 20 C, DNA 0.5 uM in SV; EMSA: 10 mM Tris pH 8.0, 50 mM NaCl, 5% glycerol, 0.1% Triton X-100, 10 mM DTT, 1 mM EDT
T1 sequence: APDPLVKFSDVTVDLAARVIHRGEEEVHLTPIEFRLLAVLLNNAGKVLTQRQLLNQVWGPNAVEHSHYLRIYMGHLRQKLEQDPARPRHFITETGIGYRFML

KdpE DBD (KdpEDBD) [2] = biological target: T1, KdpE DBD (KdpEDBD); assay: AUC sedimentation velocity (Sw isotherm); two-site model, Kd1; AUC: 50 mM HEPES pH 7.4, 150 mM KCl, 1 mM EDTA, 20 C, DNA 0.5 uM in SV; EMSA: 10 mM Tris pH 8.0, 50 mM NaCl, 5% glycerol, 0.1% Triton X-100, 10 mM DTT, 1 mM EDT
KdpE DBD (KdpEDBD) [3] = biological target: T1, KdpE DBD (KdpEDBD); assay: EMSA; minimal 21 bp; AUC: 50 mM HEPES pH 7.4, 150 mM KCl, 1 mM EDTA, 20 C, DNA 0.5 uM in SV; EMSA: 10 mM Tris pH 8.0, 50 mM NaCl, 5% glycerol, 0.1% Triton X-100, 10 mM DTT, 1 mM EDT
KdpE DBD (KdpEDBD) [4] = biological target: T1, KdpE DBD (KdpEDBD); assay: AUC sedimentation equilibrium; S2 half-site only, 1:1, AB model; AUC: 50 mM HEPES pH 7.4, 150 mM KCl, 1 mM EDTA, 20 C, DNA 0.5 uM in SV; EMSA: 10 mM Tris pH 8.0, 50 mM NaCl, 5% glycerol, 0.1% Triton X-100, 10 mM DTT, 1 mM EDT
KdpE DBD (KdpEDBD) [5] = biological target: T1, KdpE DBD (KdpEDBD); assay: AUC sedimentation equilibrium; S1 half-site only, 1:1, AB model; AUC: 50 mM HEPES pH 7.4, 150 mM KCl, 1 mM EDTA, 20 C, DNA 0.5 uM in SV; EMSA: 10 mM Tris pH 8.0, 50 mM NaCl, 5% glycerol, 0.1% Triton X-100, 10 mM DTT, 1 mM EDT

B1: kdpFABCBS 30 bp (dsDNA)
DNA 1: CATTTTTATACTTTTTTTACACCCCGCCCG
DNA 2: CGGGCGGGGTGTAAAAAAAGTATAAAAATG
Kd (KdpE DBD (KdpEDBD) [1]): 80 ± 25 nM | Kd (KdpE DBD (KdpEDBD) [2]): 90 nM

B2: kdpFABCBS 5'del1,3'del8 (21 bp) (dsDNA)
DNA 1: ATTTTTATACTTTTTTTACAC
DNA 2: GTGTAAAAAAAGTATAAAAAT
binding result (KdpE DBD (KdpEDBD) [3]): binds

B3: kdpFABCBS-1 (dsDNA)
DNA 1: CATTCCTATACTTTTTTTACACCCCGCCCG
DNA 2: CGGGCGGGGTGTAAAAAAAGTATAGGAATG
Kd (KdpE DBD (KdpEDBD) [4]): 200 ± 100 nM

B4: kdpFABCBS-7 (dsDNA)
DNA 1: CATTTTTATACTTTTTCCACACCCCGCCCG
DNA 2: CGGGCGGGGTGTGGAAAAAGTATAAAAATG
Kd (KdpE DBD (KdpEDBD) [5]): 350 ± 100 nM
